Tests used:
[1] = molecular target: T1, GST-PRDM10 441-880 (central zinc finger array) (UniProt Q3UTQ7 441-880); test: competition; EMSA, 20- to 320-fold excess over 10 nM labeled WT probe; 0.4 uM ZnCl2; EMSA: 6 mM HEPES-KOH pH 7.9, 6% glycerol, 100 ug/mL BSA, 0.4 uM ZnCl2, 20 ug/mL poly(dI-dC), room temperature 20 min; 6% native PAGE in 0.25x TBE; details: protein: recombinant; tags: GST; blunt
T1 sequence: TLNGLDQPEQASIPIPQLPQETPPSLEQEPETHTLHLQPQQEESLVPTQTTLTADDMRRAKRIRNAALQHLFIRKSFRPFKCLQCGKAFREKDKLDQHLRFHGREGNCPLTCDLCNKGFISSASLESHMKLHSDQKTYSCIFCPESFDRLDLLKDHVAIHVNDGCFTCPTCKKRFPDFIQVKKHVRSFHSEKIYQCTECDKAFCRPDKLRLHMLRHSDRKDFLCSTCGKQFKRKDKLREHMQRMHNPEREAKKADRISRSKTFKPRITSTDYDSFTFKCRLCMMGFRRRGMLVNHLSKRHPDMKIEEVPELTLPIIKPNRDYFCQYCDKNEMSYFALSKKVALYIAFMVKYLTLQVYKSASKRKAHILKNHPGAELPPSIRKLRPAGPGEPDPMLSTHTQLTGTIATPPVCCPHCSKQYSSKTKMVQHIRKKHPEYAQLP

[2] = molecular target: T1, GST-PRDM10 441-880 (central zinc finger …); test: EMSA; 125-1000 nM protein, 10 nM probe; 0.4 uM ZnCl2; EMSA: 6 mM HEPES-KOH pH 7.9, 6% glycerol, 100 ug/mL BSA, 0.4 uM ZnCl2, 20 ug/mL poly(dI-dC), room temperature 20 min; 6% native PAGE in 0.25x TBE; details: protein: recombinant; tags: GST; label: 5'-biotin; blunt

B1: WT unlabeled competitor (dsDNA)
DNA 1: CTGGCACAGTGGTCGCGCCCGGCCCGCC
DNA 2: GGCGGGCCGGGCGCGACCACTGTGCCAG
Question: Does B1 bind [1]?
Answer: binds

B2: WT probe (dsDNA)
DNA 1: CTGGCACAGTGGTCGCGCCCGGCCCGCC
DNA 2: GGCGGGCCGGGCGCGACCACTGTGCCAG
Question: Does B2 bind [2]?
Answer: binds

— article PMC7368010, “Global translation during early development depends on the essential transcription factor PRDM10”
